Here are results for one molecule from patent publication US20250122285A1 (ANWITA BIOSCIENCES, published 2025).

In the assay the target is T1, CD122/CD132 heterodimer (human, UniProt P14784 27-239; P31785 23-262).
T1 construct: Bought from ACROBIO as 'AVT-TAG CD122/CD132 heterodimer'; also called AVT-TAG CD122/CD132 heterodimer; IL-2Rβ/γ complex
T1 sequence 1: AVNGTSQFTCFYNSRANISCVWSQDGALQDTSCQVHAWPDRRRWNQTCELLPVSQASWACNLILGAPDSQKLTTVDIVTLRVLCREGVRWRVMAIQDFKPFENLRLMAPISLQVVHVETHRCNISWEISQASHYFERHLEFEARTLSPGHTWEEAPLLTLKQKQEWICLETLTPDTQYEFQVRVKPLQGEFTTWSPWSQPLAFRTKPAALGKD
T1 sequence 2: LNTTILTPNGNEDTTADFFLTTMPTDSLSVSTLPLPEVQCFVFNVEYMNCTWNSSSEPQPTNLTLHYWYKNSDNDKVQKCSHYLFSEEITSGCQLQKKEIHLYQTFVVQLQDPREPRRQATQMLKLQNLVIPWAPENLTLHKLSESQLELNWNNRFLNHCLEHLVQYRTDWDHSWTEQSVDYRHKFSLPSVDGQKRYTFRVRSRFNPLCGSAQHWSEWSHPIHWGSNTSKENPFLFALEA
Kind of assay: BLI (OCTET RED96), receptor on biosensor, IL-2 in solution at 10-2,000 nM, 24 C. How it is done: OCTET® RED96 was used to characterize the interactions of wild-type hL-2 and hhL-2 muteins with CD25, CD122, or CD122/CD132 heterodimer. AVT-TAG CD122/CD132 heterodimer was purchased from ACROBIO. The protein samples were diluted in the OCTET® kinetic buffer. […] The biosensor was then dipped into a solution containing a wild-type hL-2 and IL-2 muteins at 10 to 2,000 nM at 24° C. The association and dissociation sensorgraph was fitted by global or local fitting using the OCTET® Data Analysis HT software.

B1: IL-2-IL-15 Chimera 65 (T3A, I92A, C125S, Q126E) (ligand)
chain: APASSSTKKTQLQLEHLLLDLQMILNGIQSMEIDATTFKFYMPKKATELKHLQCLEEELKPLEEVLNLAQSKNFHLRPRDLISNINVAVLELKGSETTFMCEYADETATIVEFLNRWITFSESIISTLT
The molecule B1 displayed a dissociation constant (Kd) of 242 nM.

By Kd is commonly meant the free concentration of one partner at which half of the binding sites on the other are occupied at equilibrium, for simple one-to-one binding. Low values mean higher affinity, high ones lower affinity.
